Measurements published in patent publication US20260274928A1.

Target: 25-strain panel of pre- and post-Omicron VSV-based SARS-CoV-2 S pseudotyped viruses
Assay: cell-based or functional assay

B1: S2V29-v37.2 (antibody, V domains shown)
VH: EVQLVESGGSVVQPGRALRLSCAASGITFSSFGMYWVRQAPGKGLEWLGYIAYDGSDTYYADSVKGRFTISRDNSKNTLYLQMNSLRIEDTAVYYCAKDYYPLLSYYYGLDVWGQGTTVTVSS
VL: QSVLTQPRSVSGSPGQSVTISCTGTSSDVGAYNYVSWYQQHPGKAPKFMIYDVDQRPSGVPDRFSGSKSGNTASLIISGLQAEDEADYYCSSYAGSYIWVFGGGTQLTVL
B1 was tested, and the IC50, pseudovirus neutralization was 1.9 to 31.2 ng/mL and the median IC50, pseudovirus neutralization was 8.2 ng/mL.
